Experimental data: patent US20220033515A1 (Genentech, published 2022)
Numbering of substitutions follows the chain as printed. Where “and” joins values, the source holds several entries; their conditions need not be identical. Equal entries are not always repeated. Where two headings read alike, the source gives them in different places.

Tests used:
[1] = biological target: T1, human death receptor 5 (hDR5) (human, UniProt O14763 56-210); assay: competitive phage ELISA
T1 construct: also called DR5 long; hDR5-1f

[2] = biological target: T2, human vascular endothelial growth factor (hVEGF) (human, UniProt P15692-4 27-191); assay: ELISA on immobilised protein
T2 construct: also called hVEGF-A; human vascular endothelial growth factor A

hVEGF-C = biological target: T3, hVEGF-C (human, UniProt P49767 103-227); assay: ELISA on immobilised protein
T3 sequence (looked up): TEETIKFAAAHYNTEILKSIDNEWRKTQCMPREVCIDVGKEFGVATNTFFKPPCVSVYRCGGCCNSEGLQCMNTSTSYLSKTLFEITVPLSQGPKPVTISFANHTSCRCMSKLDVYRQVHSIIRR

[3] = biological target: bovine serum albumin (BSA) (bovine, UniProt P02769 25-607); assay: ELISA on immobilised protein
hVEGF-D = biological target: T4, hVEGF-D (human, UniProt O43915 93-201); assay: ELISA on immobilised protein
T4 sequence (looked up): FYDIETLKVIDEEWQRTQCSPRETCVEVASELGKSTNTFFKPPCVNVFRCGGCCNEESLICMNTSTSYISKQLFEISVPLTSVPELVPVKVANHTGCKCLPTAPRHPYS

[4] = biological target: T5, HER2 extracellular domain (Her2-ECD) (human, UniProt P04626 23-652); assay: ELISA on immobilised protein
T5 construct: extracellular domain; also called hHER2 extracellular domain (ECD)

[5] = biological target: T6, epidermal growth factor receptor extracellular domain (hEGFR) (human, UniProt P00533 25-645); assay: ELISA on immobilised protein
T6 construct: extracellular domain

hVEGF165 = biological target: T7, hVEGF165 (human, UniProt P15692-4 27-191); assay: ELISA on immobilised target
T7 construct: also called human VEGF165

hVEGF109 [6] = biological target: T8, hVEGF109 (human, UniProt P15692 214-315); assay: ELISA on immobilised target
T8 construct: range 8-109; also called VEGF (8-109)
T8 sequence (looked up): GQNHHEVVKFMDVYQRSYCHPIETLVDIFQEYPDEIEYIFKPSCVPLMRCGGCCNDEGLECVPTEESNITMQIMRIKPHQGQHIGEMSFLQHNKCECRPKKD

murine VEGF (mVEGF) = biological target: T9, murine VEGF (mVEGF) (murine, UniProt Q00731-2 27-190); assay: ELISA on immobilised target
T9 sequence (looked up): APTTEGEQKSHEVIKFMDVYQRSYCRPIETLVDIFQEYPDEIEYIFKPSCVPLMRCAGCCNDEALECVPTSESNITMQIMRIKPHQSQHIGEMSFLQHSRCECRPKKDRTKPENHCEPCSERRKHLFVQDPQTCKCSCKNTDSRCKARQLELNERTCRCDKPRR

[7] = biological target: T1, human death receptor 5 (hDR5); assay: equilibrium KD; method and format (Fab or IgG) not given
[8] = biological target: T5, HER2 extracellular domain (Her2-ECD); assay: equilibrium KD; method and format (Fab or IgG) not given; HER2, second number of the cell
[9] = biological target: T5, HER2 extracellular domain (Her2-ECD); assay: competitive phage ELISA
[10] = biological target: T2, human vascular endothelial growth …; assay: competitive phage ELISA
[11] = biological target: T5, HER2 extracellular domain (Her2-ECD); assay: single-spot competitive phage ELISA
[12] = biological target: T2, human vascular endothelial growth …; assay: competitive phage ELISA; remark: listed apart in the source
hVEGF109 [13] = biological target: T8, hVEGF109; assay: Biacore SPR
hVEGF109 [14] = biological target: T8, hVEGF109; assay: single-spot competitive phage ELISA
[15] = biological target: T5, HER2 extracellular domain (Her2-ECD); assay: single-spot competitive phage ELISA; remark: listed apart in the source

B1: 4-2 (scFv, V domains shown)
VH: not shown
VL: DIQMTQSPSSLSASVGDRVTITCRASQRINSHTVAWYQQKPGKAPKLLIYWGSHLYSGVPSRFSGSGSGTDFTLTISSLQPEDFATYYCQQYSNRTPPTFGQGTKVEIK
- IC50 [1]: > 1000 nM

B2: 4-6 (scFv, V domains shown)
VH: not shown
VL: DIQMTQSPSSLSASVGDRVTITCRASQSVSSAVAWYQQKPGKAPKLLIYSASSLYSGVPSRFSGSRSGTDFTLTISSLQPEDFATYYCQQYSSSPPTFGQGTKVEIK
- IC50 [1]: 16 nM

B3: 4-5 IgG (antibody, V domains shown)
VH: not shown
VL: DIQMTQSPSSLSASVGDRVTITCRASQNVGRPVAWYQQKPGKAPKLLIYGGSSLYSGVPSRFSGSGSGTDFTLTISSLQPEDFATYYCQQYGSFGTPPTFGQGTKVEIKR
notes: not shown: rest of the human IgG heavy chain constant region
- binding result [2]: no binding (tested: 100 or 500 nM (text))
- binding result (hVEGF-C): no binding (tested: 100 or 500 nM (text))
- binding result [3]: no binding (tested: 100 or 500 nM (text))
- binding result (hVEGF-D): no binding (tested: 100 or 500 nM (text))
- binding result [4]: no binding (tested: 100 or 500 nM (text))
- binding result [5]: no binding (tested: 100 or 500 nM (text))
- binding result (hVEGF165): no binding (tested: 100 nM (text))
- binding result (hVEGF109 [6]): no binding (tested: 100 nM (text))
- binding result (murine VEGF (mVEGF)): no binding (tested: 100 nM (text))

B4: 4-5 (antibody, V domains shown)
VH: not shown
VL: B3 VL
- Kd [7]: 150 nM

B5: bD1 (antibody, V domains shown)
VH: not shown
VL: DIQMTQSPSSLSASVGDRVTITCRASQNVSKHVAWYQQKPGKAPKLLIYWGSYLYSGVPSRFSGSGSGTDFTLTISSLQPEDFATYYCQQSYSGPPTFGQGTKVEIKR
- Kd [8]: 200 nM
- IC50 [9]: 30 nM
- Kd [7]: 14000 nM

B6: D1 hIgG (antibody, V domains shown)
VH: not shown
VL: B5 VL
notes: also called bD1 IgG; D1 (anti-hDR5/Her2); not shown: rest of the human IgG heavy chain constant region
- binding result [2]: no binding (tested: 100 or 500 nM (text))
- binding result (hVEGF-C): no binding (tested: 100 or 500 nM (text))
- binding result [3]: no binding (tested: 100 or 500 nM (text))
- binding result (hVEGF-D): no binding (tested: 100 or 500 nM (text))
- binding result [5]: no binding (tested: 100 or 500 nM (text))
- binding result (hVEGF165): no binding (tested: 100 nM (text))
- binding result (hVEGF109 [6]): no binding (tested: 100 nM (text))
- binding result (murine VEGF (mVEGF)): no binding (tested: 100 nM (text))

B7: 4-1 IgG (antibody, V domains shown)
VH: not shown
VL: DIQMTQSPSSLSASVGDRVTITCRASQDIWNRRALAWYQQKPGKAPKLLIYEGSSLYSGVPSRFSGSGSGTDFTLTISSLQPEDFATYYCQQGGSYSSPPTFGQGTKVEIKR
notes: as for B3
- binding result [2]: no binding (tested: 100 or 500 nM (text))
- binding result (hVEGF-C): no binding (tested: 100 or 500 nM (text))
- binding result [3]: no binding (tested: 100 or 500 nM (text))
- binding result (hVEGF-D): no binding (tested: 100 or 500 nM (text))
- binding result [4]: no binding (tested: 100 or 500 nM (text))
- binding result [5]: no binding (tested: 100 or 500 nM (text))
- binding result (hVEGF165): no binding (tested: 100 nM (text))
- binding result (hVEGF109 [6]): no binding (tested: 100 nM (text))
- binding result (murine VEGF (mVEGF)): no binding (tested: 100 nM (text))

B8: 4-1 (antibody, V domains shown)
VH: not shown
VL: B7 VL
notes: also called 4-1 anti-hDR5
- Kd [7]: 120 nM

B9: 4-4 (scFv, V domains shown)
VH: not shown
VL: DIQMTQSPSSLSASVGDRVTITCRASQVVSMTVAWYQQKPGKAPKLLIYGASSLYSGVPSRFSGSGSGTDFTLTISSLQPEDFATYYCQQYGSYSAPPTFGQGTKVEIK
- IC50 [1]: > 1000 nM

B10: bD2 (antibody, V domains shown)
VH: not shown
VL: DIQMTQSPSSLSASVGDRVTITCRASQNIRNGGGLAWYQQKPGKAPKLLIYSASFLYSGVPSRFSGSGSGTDFTLTISSLQPEDFATYYCQQHYTTPPTFGQGTKVEIKR
- Kd [8]: 100 nM
- IC50 [9]: 17 nM
- Kd [7]: 67000 nM

B11: bD2 IgG (antibody, V domains shown)
VH: not shown
VL: B10 VL
notes: as for B3
- binding result [2]: no binding (tested: 100 or 500 nM (text))
- binding result (hVEGF-C): no binding (tested: 100 or 500 nM (text))
- binding result [3]: no binding (tested: 100 or 500 nM (text))
- binding result (hVEGF-D): no binding (tested: 100 or 500 nM (text))
- binding result [5]: no binding (tested: 100 or 500 nM (text))
- binding result (hVEGF165): no binding (tested: 100 nM (text))
- binding result (hVEGF109 [6]): no binding (tested: 100 nM (text))
- binding result (murine VEGF (mVEGF)): no binding (tested: 100 nM (text))

B12: 3-4 (scFv, V domains shown, not shown: large carriers; small tags and cut ends)
VH: not shown
VL: DIQMTQSPSSLSASVGDRVTITCRASQEVYSYVAWYQQKPGKAPKLLIYPASSLYSGVPSRFSGSGSGTDFTLTISSLQPEDFATYYCQQGFWIGPPTFGQGTKVEIK
notes: also called c3-4
- IC50 [10]: 32 nM
- OD450 without competitor [11]: 0.05

B13: H7 (scFv, V domains shown)
VH: not shown
VL: B12 VL with E28N, Y30W, S31D, Y32W, F92W, W93Y, G95A
notes: copies: 1 + 1
- IC50 [12]: 60 nM

B14: 3-7 (antibody, V domains shown)
VH: not shown
VL: B12 VL with E28Y, V29I, Y30W, S31R, P50W, A51G, F92L, I94Y, G95S
notes: also called 3-7 hIgG; 3-7 anti-hVEGF
- IC50 [10]: 16 nM
- Kd (hVEGF109 [13]): 3 nM and 7 nM
- koff (hVEGF109 [13]): 0.0025 s⁻¹ and 0.0042 s⁻¹
- kon (hVEGF109 [13]): 800000 M⁻¹ s⁻¹ and 580000 M⁻¹ s⁻¹

B15: H10 (scFv, V domains shown)
VH: not shown
VL: DIQMTQSPSSLSASVGDRVTITCRASQDVFTSVAWYQQKPGKAPKLLIYDASYLYSGVPSRFSGSGSGTDFTLTISSLQPEDFATYYCQQRYIWAPPTFGQGTKVEIK
- IC50 [12]: 170 nM
- % signal, SSC +/- 50 or 100nM VEGF (hVEGF109 [14]): 49%
- OD450 without competitor (hVEGF109 [14]): 2.08
- OD450 without competitor [11]: 0.04

B16: H8 (scFv, V domains shown)
VH: not shown
VL: DIQMTQSPSSLSASVGDRVTITCRASQEIFPYYVAWYQQKPGKAPKLLIYLGSSLYSGVPSRFSGSGSGTDFTLTISSLQPEDFATYYCQQGWDGPPTFGQGTKVEIK
- IC50 [12]: 226 nM
- % signal, SSC +/- 50 or 100nM VEGF (hVEGF109 [14]): 71.2%
- OD450 without competitor (hVEGF109 [14]): 2.58
- OD450 without competitor [11]: 0.09

B17: H11 (scFv, V domains shown)
VH: not shown
VL: DIQMTQSPSSLSASVGDRVTITCRASQDIMLGSVAWYQQKPGKAPKLLIYWGSFLYSGVPSRFSGSGSGTDFTLTISSLQPEDFATYYCQQHYTTPPTFGQGTKVEIK
- OD450 without competitor [15]: 2.79
